T1: TOCA1 HR1-SH3 (residues 330–545) (Xenopus tropicalis, UniProt Q6GUF4 330-545)
T1 construct: Xenopus tropicalis TOCA1, C-terminally extended HR1 construct, residues 330-545, in pMAT10-P; also called HR1-SH3 protein; TOCA1 330–545; source: E. coli, purified (Ni-NTA, 3C protease cleavage, gel filtration); not shown: His, N-terminal, cleaved; MBP, N-terminal, cleaved
T1 sequence (looked up): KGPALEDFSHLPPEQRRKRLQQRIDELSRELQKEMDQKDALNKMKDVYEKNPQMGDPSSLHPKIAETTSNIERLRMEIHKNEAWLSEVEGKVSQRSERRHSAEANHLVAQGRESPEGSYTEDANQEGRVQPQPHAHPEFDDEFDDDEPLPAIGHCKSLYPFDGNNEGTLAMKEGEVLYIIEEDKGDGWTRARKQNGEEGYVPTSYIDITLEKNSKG

B1: Cdc42Δ7Q61L (domain or fragment)
chain: not shown
notes: Human Cdc42 with seven residues deleted from the C terminus and the mutation Q61L; cloned into pGEX-2T; Loaded with [3H]GTP for SPA and with GMPPNP for NMR; 15N- or 15N/13C-labelled in some NMR experiments; also called truncated Cdc42; Cdc42Δ7Q61L·[3H]GTP; source: E. coli BL21, purified (glutathione-agarose, thrombin cleavage, gel filtration)

Experiments:
Conditions in all cases: both partners purified
Cdc42Δ7Q61L [1] = molecular target: B1; experiment: scintillation proximity assay; competition; free effector domain titrated into 30 nM Cdc42·[3H]GTP and 30 nM GST-ACK (in Fig. 7B GST-ACK or GST-WASP GBD) immobilised on a fluoromicrosphere; Kd from competition binding isotherms
full-length Cdc42Q61L = molecular target: T2, full-length Cdc42Q61L (human, UniProt P60953 1-191, Q61L); experiment: as above
T2 construct: Human Cdc42, full length, Q61L; cloned into pGEX-6P-1; confirmed as full-length by mass spectrometry; Loaded with [3H]GTP for SPA; also called Cdc42FLQ61L; full-length [3H]GTP·Cdc42; source: E. coli BL21, purified (glutathione-agarose, 3C protease cleavage, gel filtration)

Cdc42Δ7Q61L [2] = molecular target: B1; experiment: scintillation proximity assay; direct binding; 30 nM GST-PAK, GST-ACK or His-tagged TOCA1 construct attached to a fluoromicrosphere via an anti-GST or anti-His antibody; Cdc42·[3H]GTP at increasing concentrations; apparent Kd from a direct binding isotherm
[3] = molecular target: T1, TOCA1 HR1-SH3 (residues 330–545); experiment: scintillation proximity assay; competition; free effector domain titrated into 30 nM Cdc42·[3H]GTP and 30 nM GST-ACK (in Fig. 7B GST-ACK or GST-WASP GBD) immobilised on a fluoromicrosphere; Kd from competition binding isotherms

Chain of Cdc42Δ7Q61L (P60953 1-184 Q61L): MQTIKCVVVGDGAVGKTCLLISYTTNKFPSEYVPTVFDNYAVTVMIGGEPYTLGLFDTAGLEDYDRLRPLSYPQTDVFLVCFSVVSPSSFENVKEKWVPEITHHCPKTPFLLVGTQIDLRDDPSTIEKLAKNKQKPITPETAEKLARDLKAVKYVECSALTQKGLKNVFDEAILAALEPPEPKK
T2 sequence (P60953 whole entry Q61L): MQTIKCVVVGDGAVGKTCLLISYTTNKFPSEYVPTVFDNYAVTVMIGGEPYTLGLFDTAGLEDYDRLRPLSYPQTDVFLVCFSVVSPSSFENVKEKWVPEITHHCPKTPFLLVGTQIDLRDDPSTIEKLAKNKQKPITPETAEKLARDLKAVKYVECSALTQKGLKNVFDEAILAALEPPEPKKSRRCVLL

| Binder | Kd (Cdc42Δ7Q61L [1]) [µM] | Kd (full-length Cdc42Q61L) [µM] | also measured |
| --- | --- | --- | --- |
| N-WASP G protein-binding domain (GBD) (residues 197–255) (domain or fragment, Xenopus tropicalis, UniProt Q6NX29 197-255, looked up, also called N-WASP GBD; N-WASP CRIB domain; source: E. coli BL21-CodonPlus-RIL, purified (glutathione-agarose, 3C protease cleavage, gel filtration); not shown: GST, N-terminal, cleaved) KKKLTKADIGTPSNFQHIGHVGWDPNTGFDVNNLDPELKKLFDLCGISEAQLKDKETSK | 0.037 | – | – |
| FBP17 HR1 domain (residues 385–486) (domain or fragment, Xenopus laevis, UniProt Q6GNV5 385-486, looked up, Xenopus laevis FBP17 HR1 domain, residues 385-486, from IMAGE clone 5514481, in pGEX-6P-1; also called HR1^FBP17; source: E. coli BL21, purified (glutathione-agarose, 3C protease cleavage, gel filtration); not shown: GST, N-terminal, cleaved) LKRGGSTPEDFSNLPPEQRRKKLQQKVDELNKDIQKEIDQRDALTKMRDVYTKNPQMGDAASVGQKLVEIGNNIEKLRVEVQKFEGWLAEVEGRLSARNDSS | – | 10 | – |
| TOCA1 HR1 domain (residues 330–426) with C-terminal His6 tag (domain or fragment, Xenopus tropicalis, UniProt Q6GUF4 330-426, looked up, Xenopus tropicalis TOCA1 HR1 domain, residues 330-426, from cDNA NM_001005148, in pGEX-HisP; also called HR1-His6; C-terminally His-tagged TOCA1 HR1 domain construct; source: E. coli BL21, purified (glutathione-agarose, 3C protease cleavage, gel filtration); not shown: GST, N-terminal, cleaved; His6, C-terminal, kept) KGPALEDFSHLPPEQRRKRLQQRIDELSRELQKEMDQKDALNKMKDVYEKNPQMGDPSSLHPKIAETTSNIERLRMEIHKNEAWLSEVEGKVSQRSE | – | – | Kd (Cdc42Δ7Q61L [2]): > 1 µM |
| TOCA1 HR1 domain (residues 330–426), untagged (domain or fragment, Xenopus tropicalis, UniProt Q6GUF4 330-426, looked up, Xenopus tropicalis TOCA1 (transducer of Cdc42-dependent actin assembly protein 1) HR1 domain, residues 330-426, from cDNA NM_001005148, in pGEX-6P-1; 15N- or 13C/15N-labelled in some NMR experiments; also called HR1^TOCA1; TOCA HR1 domain; source: E. coli BL21, purified (glutathione-agarose, 3C protease cleavage, gel filtration); not shown: GST, N-terminal, cleaved) KGPALEDFSHLPPEQRRKRLQQRIDELSRELQKEMDQKDALNKMKDVYEKNPQMGDPSSLHPKIAETTSNIERLRMEIHKNEAWLSEVEGKVSQRSE | 6.05 | 5.39 | – |
| CIP4 HR1 domain (residues 388–481) (domain or fragment, human, UniProt Q15642 388-481, looked up, also called HR1^CIP4; source: E. coli BL21, purified (glutathione-agarose, 3C protease cleavage, gel filtration); not shown: GST, N-terminal, cleaved) TEDFSHLPPEQQRKRLQQQLEERSRELQKEVDQREALKKMKDVYEKTPQMGDPASLEPQIAETLSNIERLKLEVQKYEAWLAEAESRVLSNRGD | – | 5 | – |
| B1 | – | – | Kd [3]: 4.6 µM |
